Reference: PMC3670040, “Structure of Lipid Kinase p110β/p85β Elucidates an Unusual SH2-Domain-Mediated Inhibitory Mechanism” (Molecular Cell, 2011)
Where two headings read alike, the source gives them in different places.

What was measured:
[1] = target: T1, p110β (Mus musculus, UniProt Q8BTI9); test: Transcreener ADP formation (fluorescence polarization), diC8-PIP2/POPS liposomes, mouse p110β complexes; assay type: biochemical; conditions: 10 μM PDGFR pY2; Figure 3A
T1 construct: Mouse His6-p110β(1-1064)/p85β-icSH2(423-722) complex; made in house; host or cells: Sf9 insect cells (baculovirus co-infection)
Protocol: (§1) Figure 1 Inhibition of p110β by p85-Type Regulatory Subunits and Activation of the Complexes by RTK Phosphopeptide (A) Domain organization of p110β and the regulatory subunits p85α, p85β, and p55γ. The color scheme for the domains is used for all figures, unless otherwise stated. […] The inhibition is released upon addition of the 10 μM PDGFR pY2. […] The y axis is expressed as a change in fluorescence polarization (ΔmP), which is obtained by subtracting the observed polarization for the construct at a given enzyme concentration from the maximum fluorescence polarization for that construct. The plateau in these assays arises due to the competitive nature of the ADP detection system, based on displacement of ADP-Alexa 633 tracer from the ADP^2-antibody by ADP generated during the PI3K assay (see Supplemental Experimental Procedures). All measurements were done in triplicates, and the error bars indicate the standard error of the mean (SEM). (C) Kinase activity of p110β/p85β complexes with monomeric substrate (75 μM diC8-PIP2) in the presence and absence of pY2; y axis as in (B). (D) Basal- and pY2-stimulated activities of 35 nM PI3K complexes in the absence of lipids (ATP hydrolysis). Activities are given as percent of ATP converted to ADP using the Transcreener assay. Bars indicate SEM. TEXT PRINTED IN THE PICTURE: (B) p110β/nic: EC50 (nM): 15 | (B) p110β/nic+pY2: EC50 (nM): 0.14 | (B) p110β/ic: EC50 (nM): 1 | (B) p110β/ic+pY2: EC50 (nM): 0.21 | (B) p110β/ni: EC50 (nM): 0.84 | (B) p110β/ni+pY2: EC50 (nM): 0.24 | (B) p110β/i: EC50 (nM): 0.12 | (B) p110β/i+pY2: EC50 (nM): 0.14 | (B) ΔABD-p110β: EC50 (nM): 0.06 | (B) ΔABD-p110β+pY2: EC50 (nM): 0.05 | (C) p110β/nic: EC50 (nM): 24 | (C) p110β/nic+pY2: EC50 (nM): 3 | (C) p110β/ic: EC50 (nM): 5 | (C) p110β/ic+pY2: EC50 (nM): 2 | (C) p110β/ni: EC50 (nM): 4 | (C) p110β/ni+pY2: EC50 (nM): 2 […]
(§2) Figure 3 Mutation Y677A in p85β-cSH2 Releases Inhibitory Effect on p110β (A) Kinase activity (ADP formation) of p110β in a complex with p85β-icSH2-Y677A (Y677A-ic) compared to the wild-type complex (ic) in the absence and presence of 10 μM PDGFR pY2 (ADP formation on the y axis expressed as in Figure 1B). (B) Comparison of p110β activities of 1 nM complexes with wild-type or Y677 mutant nicSH2 or icSH2 (activity shown as in Figure 1D). TEXT PRINTED IN THE PICTURE: (A) p110β/ic: EC50 (nM): 1 | (A) p110β/ic+pY2: EC50 (nM): 0.15 | (A) p110β/ic-Y677A: EC50 (nM): 0.11 | (A) p110β/ic-Y677A+pY2: EC50 (nM): 0.08 […]
(§3) The lipid kinase activity was determined using the Transcreener ADP2 FP Assay (BellBrook Labs, Madison, WI) according to manufacturer‟s specifications. This non-radioactive assay measures activity by quantitating the amount of ADP formed. The ADP formed by PI3K competes with fluorescent ADP tracer for binding to an anti-ADP antibody, thereby decreasing fluorescence polarization. Because of the competitive nature of this assay, the change in fluorescence polarization signal is not a linear function of enzyme activity, and a convenient measure of enzyme activity is the EC50, or the concentration of enzyme necessary to give half-maximal inhibition of labeled ADP binding to the antibody, for a given concentration of substrate and a fixed time of reaction at initial rate. While activity of two different enzyme constructs can be compared at a fixed concentration of protein and a fixed concentration of substrate, the assay is most reliable when about 2%-10% of the ATP is […]
(§4) Consequently, the EC50 provides a convenient way to compare the activities of various constructs. Briefly, reactions were performed in 10 μl volume in 384-well black plates (Corning 3676) and they contained final 100 μM ATP, 75 μM lipids and a series of protein concentration varying from 0.001 nM to 2.5 μM. Serial dilutions of protein heterodimers were prepared in buffer F (50 mM Hepes pH 7.5, 100 mM NaCl, 0.03% CHAPS, 4 mM DTT) in 5 μl […]
volume. […]

[2] = test system: p110β; test: as above; assay type: biochemical; conditions: for EC50: Figure 3A, Y677A vs wild-type, diC8-PIP2/POPS, 100 μM ATP, 1 h, room temperature
Protocol: as §1, §2, §3, §4
volume. […]

T1 sequence (Q8BTI9 whole entry, one chain of several): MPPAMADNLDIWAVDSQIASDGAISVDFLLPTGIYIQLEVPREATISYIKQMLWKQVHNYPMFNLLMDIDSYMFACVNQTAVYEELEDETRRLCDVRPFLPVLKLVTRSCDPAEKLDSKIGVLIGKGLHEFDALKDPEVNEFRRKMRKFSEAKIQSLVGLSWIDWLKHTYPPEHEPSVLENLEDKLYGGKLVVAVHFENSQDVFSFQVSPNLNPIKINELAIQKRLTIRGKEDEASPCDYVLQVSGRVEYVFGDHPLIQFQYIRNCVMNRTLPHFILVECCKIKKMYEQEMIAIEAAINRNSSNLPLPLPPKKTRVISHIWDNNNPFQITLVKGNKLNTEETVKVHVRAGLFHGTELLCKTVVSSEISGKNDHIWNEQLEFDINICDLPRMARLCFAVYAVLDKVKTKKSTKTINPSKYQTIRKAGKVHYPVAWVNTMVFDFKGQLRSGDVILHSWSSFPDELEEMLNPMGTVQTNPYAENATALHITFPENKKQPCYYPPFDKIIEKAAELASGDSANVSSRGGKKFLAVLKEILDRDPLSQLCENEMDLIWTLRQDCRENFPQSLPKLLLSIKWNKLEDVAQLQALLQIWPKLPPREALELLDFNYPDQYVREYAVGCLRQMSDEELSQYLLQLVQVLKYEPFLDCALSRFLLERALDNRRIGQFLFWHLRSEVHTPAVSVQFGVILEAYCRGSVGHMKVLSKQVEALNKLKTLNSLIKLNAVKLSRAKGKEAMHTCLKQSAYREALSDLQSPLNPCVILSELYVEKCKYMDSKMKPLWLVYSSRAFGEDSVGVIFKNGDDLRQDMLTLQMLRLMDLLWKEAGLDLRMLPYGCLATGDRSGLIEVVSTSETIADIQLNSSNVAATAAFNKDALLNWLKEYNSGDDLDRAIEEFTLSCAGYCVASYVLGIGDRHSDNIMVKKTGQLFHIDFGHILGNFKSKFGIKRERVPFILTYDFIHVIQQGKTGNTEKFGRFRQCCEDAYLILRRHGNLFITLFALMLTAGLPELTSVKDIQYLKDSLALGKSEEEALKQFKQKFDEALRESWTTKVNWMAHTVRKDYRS

B1: p110β/ic-Y677A: p110β in a complex with p85β-icSH2-Y677A (protein)
chain: QQDQVVKEDSIEAVGAQLKVYHQQYQDKSREYDQLYEEYTRTSQELQMKRTAIEAFNETIKIFEEQGQTQEKCSKEYLERFRREGNEKEMQRILLNSERLKSRIAEIHESRTKLEQDLRAQASDNREIDKRMNSLKPDLMQLRKIRDQYLVWLTQKGARQRKINEWLGIKNETEDQYSLMEDEDALPHHEERTWYVGKINRTQAEEMLSGKRDGTFLIRESSQRGCYACSVVVDGDTKHCVIYRTATGFGFAEPANLYGSLKELVLHYQHASLVQHNDALTVTLAHPVRAPGPGPPSAAR
- activation by pY2 [1]: not activated by pY2
- EC50 ([2]; absence of pY2, read-out: EC50 (enzyme concentration), kinase activity, basal): 0.11 nM
- EC50 ([2]; with 10 μM PDGFR pY2, read-out: EC50 (enzyme concentration), kinase activity, + pY2): 0.08 nM
- basal activity versus wild-type complex ([2]; absence of pY2, ADP formation, Figures 3A, 3B): more active than the wild-type p110β/p85β-icSH2
